Test results: patent publication US8318918B2, “Chalcone 3-hydroxylase” (Technische Universitat Wien, priority 2009, dated 2012)

What was measured:
[1] = test system: recombinant CH3H from Cosmos sulphureus; test: Enzyme assay and kinetic studies of recombinant CH3H with 14C-labelled substrates; format: biochemical; conditions: recombinant enzyme from the Cosmos sulphureus cDNA clone expressed in yeast
From the text: Heterologous Expression in Yeast For the heterologous expression, the proofreading amplicons were ligated into the yeast expression vector pYES2.1/V5-His-TOPO® (Invitrogen, UK) and transformed into E. coli TOP10F′ (Invitrogen, UK). The identification of the sense constructs took place with a PCR, for which a gene-specific forward and a plasmid-specific reverse primer was used. Sense constructs were isolated and the correct sequence confirmed by sequencing. Desired plasmids were then transformed into the yeast strain INVSc 1 (Invitrogen, UK). The heterologous expression was performed according to methods known in science, and the prepared proteins were shock-frozen in liquid nitrogen and stored at −80° C. […]
(§1) In order to determine the substrate specificity of the heterologously expressed F3′Hs, the following enzyme tests were performed: 20 μg of the recombinant wild-type CH3H or 50 μg of the hybrid proteins, respectively, were incubated with 0.25 nmol [14C]-marked chalcone or flavonoid substrates in the presence of 10 mM NADPH and 0.1 M KH2PO4—K2HPO4 (with 0.4% Na-ascorbate, pH: 7.5) buffer at 30° C. […] Detection and quantification of radioactivity took place using TLC analysis.
Kinetic data (apparent Michaelis constant (Km) and maximum speed of reaction (Vmax)) were determined using Lineweaver Burk plots.

[2] = F3′H activity (substrate acceptance) of heterologously expressed native, chimeric and mutated enzymes; format: biochemical, Cosmos sulphureus; conditions: recombinant enzymes expressed in yeast
From the text: (§2) Heterologous Expression in Yeast For the heterologous expression, the proofreading amplicons were ligated into the yeast expression vector pYES2.1/V5-His-TOPO® (Invitrogen, UK) and transformed into E. coli TOP10F′ (Invitrogen, UK). The identification of the sense constructs took place with a PCR, for which a gene-specific forward and a plasmid-specific reverse primer was used. Sense constructs were isolated and the correct sequence confirmed by sequencing. Desired plasmids were then transformed into the yeast strain INVSc 1 (Invitrogen, UK). The heterologous expression was performed according to methods known in science, and the prepared proteins were shock-frozen in liquid nitrogen and stored at −80° C. The determination of the amount of protein in the preparations was performed according to a modified Lowry method.
as §1

[3] = CH3H activity (hydroxylation of chalcones) of heterologously expressed native, chimeric and mutated enzymes; format: biochemical, Cosmos sulphureus; conditions: recombinant enzymes expressed in yeast
From the text: as §2, §1

| catalytic CH3H activity with substrate [1] | F3′H activity [2] | CH3H activity (hydroxylation of chalcones) [3] | Molecule |
| --- | --- | --- | --- |
| high catalytic CH3H activities | – | – | O=C(/C=C/c1ccc(O)cc1)c1ccc(O)cc1O [Iso, isoliquiritigenin] |
| – | confirmed the F3′H activity | lacking CH3H activity | F3′H: recombinant F3′H from Cosmos sulphureus (Accession No.: FJ216426), tested as a comparison (protein, listed as Cosmos sulphureus) MTILPLLLYPSLTALLLYVLLNLRPRHPNRLPPGPSPWPIVGNLPHLGTTPHHSLAALAAKYGPLMHLRLGFVDVVVAASASVASQFLKTHDANFASRPPNSGAEHMAYNYQDLVFAPYGPRWRMLRKICSVHLFSGKALDDFRHVRQEEVAVLTRALAGAGKSPVKLGQLLSVCTTNALARVMLGRRVFGERDAKADEFKDMVVEMMVLAGEFNIGDFIPALDWLDLQGITKKMKKLHAQFDSFLNTILEEHKTGKGGSSSHRDLSSTLIALKDDADGEGGKLSDIEIKALLLNLFIAGTDTSSSTVEWAIAELIRCPQILRQAHEEMDNVVGRERLVTESDLGKLTFLQAIVKETFRLHPSTPLSLPRIASESCEIDGYFIPKGSTLLVNVWAIARDPKMWTDPLEFRPTRFLPGGEKPNVDVKGNDFEVIPFGAGRRICVGISLGLRMVQLLVATLVQTFDWELANGVLPEKLNMNEAFGLTLQRAEPLIVYPKPRLAPHVYESG |
